Data reported in article PMC7254967.
One block for each substance: values may come before it.

Key:
Assay in all cases: crystal structure
[1] = biological target: F6, fused 4-oxalocrotonate tautomerase from Caballeronia arationis (Caballeronia arationis)
[2] = biological target: Q0, fused 4-oxalocrotonate tautomerase from Bordetella trematum (Bordetella trematum)
[3] = biological target: R7, fused 4-oxalocrotonate tautomerase from Burkholderia sp. RPE67 (Burkholderia sp. RPE67)
[4] = biological target: W0, fused 4-oxalocrotonate tautomerase from Advenella mimigardefordensis DPN7 (Advenella mimigardefordensis DPN7)

- stoichiometry N [1]: 3
Substance: F6, fused 4-oxalocrotonate tautomerase from Caballeronia arationis (enzyme)

- stoichiometry N [2]: 3
Substance: Q0, fused 4-oxalocrotonate tautomerase from Bordetella trematum (enzyme)

- stoichiometry N [3]: 3
Substance: R7, fused 4-oxalocrotonate tautomerase from Burkholderia sp. RPE67 (enzyme)

- stoichiometry N [4]: 3
Substance: W0, fused 4-oxalocrotonate tautomerase from Advenella mimigardefordensis DPN7 (enzyme)
